Blank lines part the entries; values can stand above or below the binder they belong to.
Legend:
[1] = biological target: T1, VEGF (VEGF 1-165 aa, R&D Systems 293-VE-010) (UniProt P15692 27-191); experiment: Direct bind ELISA, VEGF coated on plate; VEGF domain N-term., HC short/LC short
T1 construct: bought reagent; also called vascular endothelial growth factor

[2] = biological target: T2, recombinant human HGF (human, UniProt P14210 32-728); experiment: competition ELISA: DVD-Ig co-incubated with 2 nM soluble c-Met Fc on coated HGF (competitor c-Met Fc)
T2 construct: The target there is entered as this HGF; also called hepatocyte growth factor

[3] = biological target: HGF (UniProt P14210 32-728); experiment: SPR (Biacore); C-terminal VD
[4] = biological target: T1, VEGF (VEGF 1-165 aa, R&D Systems …); experiment: Direct bind ELISA, VEGF coated on plate; VEGF domain C-term., HC short/LC short
[5] = biological target: T1, VEGF (VEGF 1-165 aa, R&D Systems …); experiment: Direct bind ELISA, VEGF coated on plate; VEGF domain C-term., HC long/LC long

HGF, sequence (P14210 32-728 limits assumed): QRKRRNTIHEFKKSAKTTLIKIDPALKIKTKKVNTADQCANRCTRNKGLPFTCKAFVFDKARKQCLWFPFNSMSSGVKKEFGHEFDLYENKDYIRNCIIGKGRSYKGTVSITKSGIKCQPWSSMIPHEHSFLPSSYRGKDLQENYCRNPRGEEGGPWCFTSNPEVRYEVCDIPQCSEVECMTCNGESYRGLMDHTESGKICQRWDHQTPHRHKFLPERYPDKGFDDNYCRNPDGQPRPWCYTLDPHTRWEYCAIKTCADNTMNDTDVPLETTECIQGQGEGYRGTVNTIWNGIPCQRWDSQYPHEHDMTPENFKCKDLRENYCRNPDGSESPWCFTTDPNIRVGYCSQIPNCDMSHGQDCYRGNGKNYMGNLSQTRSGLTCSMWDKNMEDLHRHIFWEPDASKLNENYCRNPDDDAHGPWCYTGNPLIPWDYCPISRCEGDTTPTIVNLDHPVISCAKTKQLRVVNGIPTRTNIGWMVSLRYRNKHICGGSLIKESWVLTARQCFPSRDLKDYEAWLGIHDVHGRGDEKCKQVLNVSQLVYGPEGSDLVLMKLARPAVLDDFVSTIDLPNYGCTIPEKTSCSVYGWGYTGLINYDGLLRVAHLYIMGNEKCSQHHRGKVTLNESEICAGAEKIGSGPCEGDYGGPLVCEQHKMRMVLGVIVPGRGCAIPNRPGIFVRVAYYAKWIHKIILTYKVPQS
T1 sequence (P15692 other isoform, or with tags, fused parts or gaps limits assumed): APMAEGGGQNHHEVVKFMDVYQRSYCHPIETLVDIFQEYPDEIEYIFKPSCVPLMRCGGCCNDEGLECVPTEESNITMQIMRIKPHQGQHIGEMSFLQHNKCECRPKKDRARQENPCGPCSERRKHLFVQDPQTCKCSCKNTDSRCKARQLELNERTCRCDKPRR
T2 sequence (P14210 32-728 limits assumed): as the sequence (P14210 32-728 limits assumed) above

B2: DVD034 (HGF (seq. 1) N-terminal / RON (seq. 1) C-terminal DVD-Ig) (bispecific antibody, human IgG1, kappa)
heavy: not shown
light: DIQMTQSPSSVSASVGDRVTITCRASQGISSWLAWYQQKPGKAPNLLIYEASSLQSGVPSRFGGSGSGTDFTLTISSLQPEDFATYYCQQANGFPWTFGQGTKVEIKRTVAAPDVVMTQSPLSLPVTPGEPASISCRSSQSLLHSNGFNYVDWYLQKPGQSPHLLIYFGSYRASGVPDRFSGSGSGTDFTLKISRVEAEDVGVYYCMQALQTPPWTFGQGTKVEIRRTVAAPSVFIFPPSDEQLKSGTASVVCLLNNFYPREAKVQWKVDNALQSGNSQESVTEQDSKDSTYSLSSTLTLSKADYEKHKVYACEVTHQGLSSPVTKSFNRGEC
notes: also called DVD034H/DVD034L
IC50 [2]: 0.34 nM

B3: DVD045 (bispecific antibody, human IgG1, kappa)
heavy: not shown
light: DIQMTQSPSSLSASVGDRVTITCSASQDISNYLNWYQQKPGKAPKVLIYFTSSLHSGVPSRFSGSGSGTDFTLTISSLQPEDFATYYCQQYSTVPWTFGQGTKVEIKRTVAAPDIQMTQSPSSVSASVGDRVTITCRASQGISSWLAWYQQKPGKAPNLLIYEASSLQSGVPSRFGGSGSGTDFTLTISSLQPEDFATYYCQQANGFPWTFGQGTKVEIKRTVAAPSVFIFPPSDEQLKSGTASVVCLLNNFYPREAKVQWKVDNALQSGNSQESVTEQDSKDSTYSLSSTLTLSKADYEKHKVYACEVTHQGLSSPVTKSFNRGEC
notes: N-terminal VD VEGF, C-terminal VD HGF; also called DVD045H; DVD045L
Kd [3]: 0.901 nM
koff [3]: 0.000166 s⁻¹
kon [3]: 184000 M⁻¹ s⁻¹

B7: DVD519 (bispecific antibody, human IgG1, kappa, lambda)
heavy: not shown
light: QAVVTQESALTTSPGETVTLTCRSSTGAVTTSNYANWVQEKPDHLFTGLIGGTNNRAPGVPARFSGSLIGDKAALTITGAQTEDEAIYFCALWYSNHWVFGGGTKLTVLGQPKAAPSVTLFPPDIQMTQSPSSLSASVGDRVTITCRASQDVSTAVAWYQQKPGKAPKLLIYSASFLYSGVPSRFSGSGSGTDFTLTISSLQPEDFATYYCQQSYTTPPTFGQGTKVEIKRTVAAPSVFIFPPSDEQLKSGTASVVCLLNNFYPREAKVQWKVDNALQSGNSQESVTEQDSKDSTYSLSSTLTLSKADYEKHKVYACEVTHQGLSSPVTKSFNRGEC
notes: DVD-Ig; N-term; AB073 (DLL4), C-term; AB070 (VEGF); HC linker long, LC linker long; also called DVD-Ig DVD519; DVD519H/DVD519L
EC50 [5]: 77.2 nM

The next lines start with the values.

EC50 [1]: 67.4 nM
B1: DVD514 (bispecific antibody, human IgG1, lambda)
heavy: not shown
light: DIQMTQSPSSLSASVGDRVTITCRASQDVSTAVAWYQQKPGKAPKLLIYSASFLYSGVPSRFSGSGSGTDFTLTISSLQPEDFATYYCQQSYTTPPTFGQGTKVEIKRTVAAPQAVVTQESALTTSPGETVTLTCRSSTGAVTTSNYANWVQEKPDHLFTGLIGGTNNRAPGVPARFSGSLIGDKAALTITGAQTEDEAIYFCALWYSNHWVFGGGTKLTVLGQPKAAPSVTLFPPSSEELQANKATLVCLISDFYPGAVTVAWKADSSPVKAGVETTTPSKQSNNKYAASSYLSLTPEQWKSHRSYSCQVTHEGSTVEKTVAPTECS
notes: DVD-Ig; N-term; AB070 (VEGF), C-term; AB073 (DLL4); HC linker short, LC linker short; also called DVD-Ig DVD514; DVD514H/DVD514L

IC50 [2]: > 100 nM
B4: DVD045 (VEGF (seq. 1) N-terminal / HGF (seq. 1) C-terminal DVD-Ig, linker set 1) (bispecific antibody, human IgG1, kappa)
heavy: not shown
light: DIQMTQSPSSLSASVGDRVTITCSASQDISNYLNWYQQKPGKAPKVLIYFTSSLHSGVPSRFSGSGSGTDFTLTISSLQPEDFATYYCQQYSTVPWTFGQGTKVEIKRTVAAPDIQMTQSPSSVSASVGDRVTITCRASQGISSWLAWYQQKPGKAPNLLIYEASSLQSGVPSRFGGSGSGTDFTLTISSLQPEDFATYYCQQANGFPWTFGQGTKVEIKRTVAAPSVFIFPPSDEQLKSGTASVVCLLNNFYPREAKVQWKVDNALQSGNSQESVTEQDSKDSTYSLSSTLTLSKADYEKHKVYACEVTHQGLSSPVTKSFNRGEC
notes: also called DVD045H/DVD045L

EC50 [4]: 181 nM
B5: DVD489 (bispecific antibody, human IgG1, kappa, L234A L235A)
heavy: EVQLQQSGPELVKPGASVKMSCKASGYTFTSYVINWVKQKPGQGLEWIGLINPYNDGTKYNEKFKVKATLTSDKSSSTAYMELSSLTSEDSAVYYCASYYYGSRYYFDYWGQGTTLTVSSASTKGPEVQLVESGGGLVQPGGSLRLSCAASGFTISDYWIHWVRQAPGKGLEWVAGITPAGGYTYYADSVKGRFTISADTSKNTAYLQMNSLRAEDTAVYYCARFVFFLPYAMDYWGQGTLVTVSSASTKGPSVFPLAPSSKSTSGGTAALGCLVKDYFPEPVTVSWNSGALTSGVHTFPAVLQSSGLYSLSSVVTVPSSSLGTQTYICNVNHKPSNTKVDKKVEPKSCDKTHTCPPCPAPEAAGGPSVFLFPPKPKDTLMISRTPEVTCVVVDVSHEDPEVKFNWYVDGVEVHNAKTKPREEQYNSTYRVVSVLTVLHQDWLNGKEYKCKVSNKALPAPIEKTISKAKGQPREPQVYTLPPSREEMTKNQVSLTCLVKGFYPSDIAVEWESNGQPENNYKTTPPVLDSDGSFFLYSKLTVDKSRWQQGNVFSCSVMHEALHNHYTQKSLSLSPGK
light: DIQMTQSSSYLSVSLGGRVTITCKASDHINNWLAWYQQKPGNAPRLLISGATSLETGVPSRFSGSGSGKDYTLSITSLQTEDVATYYCQQYWSIPLTFGAGTKLELKRTVAAPDIQMTQSPSSLSASVGDRVTITCRASQDVSTAVAWYQQKPGKAPKLLIYSASFLYSGVPSRFSGSGSGTDFTLTISSLQPEDFATYYCQQSYTTPPTFGQGTKVEIKRTVAAPSVFIFPPSDEQLKSGTASVVCLLNNFYPREAKVQWKVDNALQSGNSQESVTEQDSKDSTYSLSSTLTLSKADYEKHKVYACEVTHQGLSSPVTKSFNRGEC
notes: DVD-Ig; N-term; AB072 (DLL4), C-term; AB070 (VEGF); HC linker short, LC linker short; also called DVD-Ig DVD489; DVD489H/DVD489L

EC50 [1]: 8.42 nM
B6: DVD492 (bispecific antibody, human IgG1, kappa)
heavy: not shown
light: DIQMTQSPSSLSASVGDRVTITCRASQVIRRSLAWYQQKPGKAPKLLIYAASNLASGVPSRFSGSGSGTDFTLTISSLQPEDFATYYCQQSNTSPLTFGQGTKVEIKRTVAAPDIQMTQSSSYLSVSLGGRVTITCKASDHINNWLAWYQQKPGNAPRLLISGATSLETGVPSRFSGSGSGKDYTLSITSLQTEDVATYYCQQYWSIPLTFGAGTKLELKRTVAAPSVFIFPPSDEQLKSGTASVVCLLNNFYPREAKVQWKVDNALQSGNSQESVTEQDSKDSTYSLSSTLTLSKADYEKHKVYACEVTHQGLSSPVTKSFNRGEC
notes: DVD-Ig; N-term; AB071 (VEGF), C-term; AB072 (DLL4); HC linker short, LC linker short; also called DVD-Ig DVD492; DVD492H/DVD492L
